Results published in patent US20230242902A1, “A HIGHLY ERROR-PRONE […] R[…] FOR TARGETED CONTINUOUS EVOLUTION IN VIVO” (The Regents of the University of California, priority 2017, published 2023).

B1: G410F: TP-DNAP1 variant (protein)
chain: MDYKDKALNDLRNVYADFDSLPLDFRQILIKDRATLLQKEDVEKKILERQEDAKKYAEYLKQSEIPERISLPNIKRHKGVSISFEETSEDMVLEPRPFIFDGLNIRCFRRETIFSLKNKILNMVKESSSFKNVSRQSVSFMYFKIFNKGKVIASTKSVNIYEDKIDERLEDLCNNFDDVLKKIIDVTYGYESLFVSETYSYVIFYAKSIYFPQPRCVNNWGNNIPNILTFDSFKLFTANKNNVSCIKQCSRFLWQKDFNTLEEMIEYKNGNICIVTPQLHINDVRDIKSFNDIRLYSESPIKTFSVIDNTITYLFYFKEHLGVIFNITKSRHDRRVTKFSPLSKFSDVKNITVCFDIESYFDPEKESNQVNIPFICCASIIYNKVIGNIVDFEGRDCVAQMIEYVVDICFELNISSVELIAHNGGGYDFHYILSSMYNPAAIKNILIRNNSFISFNFAHDGVKFSVKDSYSFLLCSLANASKAFLNEETFKKTDFPHHDLKTADDLYKVYKEWSSVNTEINHVVEKEKLLITSEHIVNFTKNDKSKTLIEWSKDYCRNDVLVLSKVWLEFKNAVEDIFNCELVDQTMTLAGLSYKLFQANMPFDVELRHPNKEDYFNMREALIGGRCISVNGIYKDVLCLDVKSLYPASMAFYDQPYGSFKRVSSRPKDELGIYYVRVTPNRNNKSNFFPIRSHNKITYNNFEESTYIAWYTNVDIDIGLSEGHNIEYIPFDSYGNIGYSWSKKGKIFEKYIKDVLYKLKIKYEKQNNKVKRNVIKIIMNSLWGKFAQKWVNFEYFIKSEDDIDFESEEAYKIWDTDFMLIKKIKESTYSSKPIQNGVFTLSWARYHMKSIWDAGAKEGAECIYSDTDSIFVHKEHFKKNAKFMLNGLKVPIIGSEVGQLELECEFDKLLCAGKKQYMGFYTYFQDGKPCIKEKKRFKGIPSNYIIPELYAHLLSGADKEAKIQFLKFRREWGSVKGYIENKTVKAT
B2: G410S: TP-DNAP1 variant (protein)
chain: MDYKDKALNDLRNVYADFDSLPLDFRQILIKDRATLLQKEDVEKKILERQEDAKKYAEYLKQSEIPERISLPNIKRHKGVSISFEETSEDMVLEPRPFIFDGLNIRCFRRETIFSLKNKILNMVKESSSFKNVSRQSVSFMYFKIFNKGKVIASTKSVNIYEDKIDERLEDLCNNFDDVLKKIIDVTYGYESLFVSETYSYVIFYAKSIYFPQPRCVNNWGNNIPNILTFDSFKLFTANKNNVSCIKQCSRFLWQKDFNTLEEMIEYKNGNICIVTPQLHINDVRDIKSFNDIRLYSESPIKTFSVIDNTITYLFYFKEHLGVIFNITKSRHDRRVTKFSPLSKFSDVKNITVCFDIESYFDPEKESNQVNIPFICCASIIYNKVIGNIVDFEGRDCVAQMIEYVVDICSELNISSVELIAHNGGGYDFHYILSSMYNPAAIKNILIRNNSFISFNFAHDGVKFSVKDSYSFLLCSLANASKAFLNEETFKKTDFPHHDLKTADDLYKVYKEWSSVNTEINHVVEKEKLLITSEHIVNFTKNDKSKTLIEWSKDYCRNDVLVLSKVWLEFKNAVEDIFNCELVDQTMTLAGLSYKLFQANMPFDVELRHPNKEDYFNMREALIGGRCISVNGIYKDVLCLDVKSLYPASMAFYDQPYGSFKRVSSRPKDELGIYYVRVTPNRNNKSNFFPIRSHNKITYNNFEESTYIAWYTNVDIDIGLSEGHNIEYIPFDSYGNIGYSWSKKGKIFEKYIKDVLYKLKIKYEKQNNKVKRNVIKIIMNSLWGKFAQKWVNFEYFIKSEDDIDFESEEAYKIWDTDFMLIKKIKESTYSSKPIQNGVFTLSWARYHMKSIWDAGAKEGAECIYSDTDSIFVHKEHFKKNAKFMLNGLKVPIIGSEVGQLELECEFDKLLCAGKKQYMGFYTYFQDGKPCIKEKKRFKGIPSNYIIPELYAHLLSGADKEAKIQFLKFRREWGSVKGYIENKTVKAT
B3: G410W: TP-DNAP1 variant (protein)
chain: MDYKDKALNDLRNVYADFDSLPLDFRQILIKDRATLLQKEDVEKKILERQEDAKKYAEYLKQSEIPERISLPNIKRHKGVSISFEETSEDMVLEPRPFIFDGLNIRCFRRETIFSLKNKILNMVKESSSFKNVSRQSVSFMYFKIFNKGKVIASTKSVNIYEDKIDERLEDLCNNFDDVLKKIIDVTYGYESLFVSETYSYVIFYAKSIYFPQPRCVNNWGNNIPNILTFDSFKLFTANKNNVSCIKQCSRFLWQKDFNTLEEMIEYKNGNICIVTPQLHINDVRDIKSFNDIRLYSESPIKTFSVIDNTITYLFYFKEHLGVIFNITKSRHDRRVTKFSPLSKFSDVKNITVCFDIESYFDPEKESNQVNIPFICCASIIYNKVIGNIVDFEGRDCVAQMIEYVVDICWELNISSVELIAHNGGGYDFHYILSSMYNPAAIKNILIRNNSFISFNFAHDGVKFSVKDSYSFLLCSLANASKAFLNEETFKKTDFPHHDLKTADDLYKVYKEWSSVNTEINHVVEKEKLLITSEHIVNFTKNDKSKTLIEWSKDYCRNDVLVLSKVWLEFKNAVEDIFNCELVDQTMTLAGLSYKLFQANMPFDVELRHPNKEDYFNMREALIGGRCISVNGIYKDVLCLDVKSLYPASMAFYDQPYGSFKRVSSRPKDELGIYYVRVTPNRNNKSNFFPIRSHNKITYNNFEESTYIAWYTNVDIDIGLSEGHNIEYIPFDSYGNIGYSWSKKGKIFEKYIKDVLYKLKIKYEKQNNKVKRNVIKIIMNSLWGKFAQKWVNFEYFIKSEDDIDFESEEAYKIWDTDFMLIKKIKESTYSSKPIQNGVFTLSWARYHMKSIWDAGAKEGAECIYSDTDSIFVHKEHFKKNAKFMLNGLKVPIIGSEVGQLELECEFDKLLCAGKKQYMGFYTYFQDGKPCIKEKKRFKGIPSNYIIPELYAHLLSGADKEAKIQFLKFRREWGSVKGYIENKTVKAT
B4: G410T: TP-DNAP1 variant (protein)
chain: MDYKDKALNDLRNVYADFDSLPLDFRQILIKDRATLLQKEDVEKKILERQEDAKKYAEYLKQSEIPERISLPNIKRHKGVSISFEETSEDMVLEPRPFIFDGLNIRCFRRETIFSLKNKILNMVKESSSFKNVSRQSVSFMYFKIFNKGKVIASTKSVNIYEDKIDERLEDLCNNFDDVLKKIIDVTYGYESLFVSETYSYVIFYAKSIYFPQPRCVNNWGNNIPNILTFDSFKLFTANKNNVSCIKQCSRFLWQKDFNTLEEMIEYKNGNICIVTPQLHINDVRDIKSFNDIRLYSESPIKTFSVIDNTITYLFYFKEHLGVIFNITKSRHDRRVTKFSPLSKFSDVKNITVCFDIESYFDPEKESNQVNIPFICCASIIYNKVIGNIVDFEGRDCVAQMIEYVVDICTELNISSVELIAHNGGGYDFHYILSSMYNPAAIKNILIRNNSFISFNFAHDGVKFSVKDSYSFLLCSLANASKAFLNEETFKKTDFPHHDLKTADDLYKVYKEWSSVNTEINHVVEKEKLLITSEHIVNFTKNDKSKTLIEWSKDYCRNDVLVLSKVWLEFKNAVEDIFNCELVDQTMTLAGLSYKLFQANMPFDVELRHPNKEDYFNMREALIGGRCISVNGIYKDVLCLDVKSLYPASMAFYDQPYGSFKRVSSRPKDELGIYYVRVTPNRNNKSNFFPIRSHNKITYNNFEESTYIAWYTNVDIDIGLSEGHNIEYIPFDSYGNIGYSWSKKGKIFEKYIKDVLYKLKIKYEKQNNKVKRNVIKIIMNSLWGKFAQKWVNFEYFIKSEDDIDFESEEAYKIWDTDFMLIKKIKESTYSSKPIQNGVFTLSWARYHMKSIWDAGAKEGAECIYSDTDSIFVHKEHFKKNAKFMLNGLKVPIIGSEVGQLELECEFDKLLCAGKKQYMGFYTYFQDGKPCIKEKKRFKGIPSNYIIPELYAHLLSGADKEAKIQFLKFRREWGSVKGYIENKTVKAT

Tested on: p1
Assay: p1 copy number by p1-encoded mKate2 fluorescence
Format: cell-based, S. cerevisiae
Details: OR-Y24, measured in triplicate
Procedure: A calibration curve was established to correlate p1 copy number, determined via quantitative PCR (qPCR), with fluorescence of p1-encoded mKate2 (Table 1). Five TP-DNAP1 variants representing a wide range of copy numbers were transformed into ORY24 and passaged until w.t. p1 was displaced. The five OR-Y24 strains were grown to saturation, diluted 1:10,000 to mimic p1 fluctuation tests, and grown in triplicate 100 μL cultures and duplicate 40 mL cultures. 100 μL saturated cultures were subject to fluorescence measurement of mKate2 (ex/em=561 nm/620 nm, bandwidth=15 nm) on a flow cytometer (Invitrogen Attune NxT). Whole-cell DNA extracts were prepared from 40 mL cultures and used as templates for qPCR measurement of p1-encoded leu2 (Q180*), as described previously (Ravikumar et al., 2014). p1-encoded LEU2 was PCR amplified with qPCR-Leu2F and qPCR Leu2R; and genomic LEU3 was PCR amplified with qPCR-Leu3F and qPCR-Leu3R using SyBR Green (Fisher Scientific) master mix.
To assay p1 copy number for large-scale p1 fluctuation tests, additional replicates of OR-Y24 strains were grown from the 1:10,000 dilution in triplicate and saturated cultures were subject to fluorescence measurement via flow cytometry. Fluorescence measurements were converted to copy number with the linear calibration curve.
To assay relative p1 copy number for small-scale p1 fluctuation tests, an additional 200 μL culture of OR-Y24 strains were grown from the 1:10,000 dilution. 200 μL saturated cultures were subject to an OD600 measurement and fluorescence measurement of mKate2 (ex/em=588 nm/633 nm), using a microplate reader (TECAN Infinite M200 PRO). A linear relationship was assumed between p1 copy number and OD600-normalized mKate2 fluorescence. Copy numbers were calculated from normalization to a w.t. TP-DNAP1 control.
For a few large-scale p1 fluctuation tests, p1 copy number was assayed by the method of small scale p1 fluctuation tests (i.e. microplate reader measurement). For these experiments, mutant TP-DNAP1 p1 copy numbers were calculated by normalization to a w.t. TP-DNAP1 control. The copy number of this control was assumed to be the average w.t. TP-DNAP1 copy number from all large-scale p1 fluctuation tests that used flow cytometry measurements.
TP-DNAP1 plasmids were isolated from these strains and subject to Sanger sequencing. 210 unique variants were identified and the corresponding plasmids were re-transformed into OR-Y24. Transformed strains were passaged in SC-UH until w.t. p1 was displaced, and subject to p1 copy number measurement in triplicate. Four high copy variants were directly subject to qPCR measurements for validation. To test the suppressor activity of the G410H mutation, which yields increased p1 copy number, this amino acid change was added to several low-activity TP-DNAP1 variants. p1 copy number was similarly assayed for these strains.

| Molecule | Mean fold-increase over w.t. (p1 copy number) |
| --- | --- |
| B1 | 2.66 fold |
| B2 | 2.27 fold |
| B3 | 2.5 fold |
| B4 | 2.57 fold |
